Experimental findings from patent publication US20250027068 are described below.

Numbering of substitutions follows the chain as printed.

B1: PRT-398 (protein)
chain: MVTSVWTKGVTPPADFTQGEDVFHAPYVANQGWYDITKTFNGKDDLLCGAATAGNMLHWWFDQNKEYIEAYLKKHPEKQKIMFGDQELLDVRKAINTKGSQKNSELFNYFRDKAFPNLSARRLGVMPDLVLDMFINGYYLNVTKTQTTDVNRTYQEKDKRGGIFDAVFTRGDQSKLLTSRHDFKEKGLKEISDLIKQELTEGKALGLSHTYANVRINHVINLWGADFDSDGNLKAIYVTDSDSNASIGMKKYDVGVNSAGKVAISAKEIKEDNIGAQVLGLFTLSTGQDIWNQTN
B2: PRT-407 (protein)
chain: B1 chain with M82I, D253F
B3: PRT-406 (protein)
chain: B1 chain with G42R, D253F
B4: PRT-399 (protein)
chain: B1 chain with D253V
B5: PRT-414 (protein)
chain: MTITSVWTKGVTPPTPEDFRYNNEDVLHAPYVANQGWYDITKTFDGKDNLLCGAATAGNMLHWWFDQNKEEIERYLKKHPEKQKIIFGNQELFDVKAAIDTKDSQTNSKLFNYFRDKAFPNLSARQLGVMPDLVLDMFINGYYLNLGKTQSTDVNRPYQDKDKRGGIFDAVFTRGDQTTLLTARHDLKNKGLNEISDLIKQELTEGKALALSHTYANVRINHVINLWGADFDAEGNLIAIYVTDSDANASIGMKKYFVGVNANGKVAISAKKIEGDNIGAQVLGLFTLSTGQDIWQKLS
B6: PRT-422 (protein)
chain: B5 chain with G88N, A249P
B7: PRT-383 (protein)
chain: MVTSVWTKGVTPPTNFTYGEDVLHAPYVANQGWYDITKTFNGKDDLLCGAATAGNMLHWWFDQNKEQIENYLKKHPEKQKINFNGEQMFDVKEAIDTKDSQLDSKLFDYFKEKAFPYLSTKHLGVFPDHVIDMFINGYRLSLTNHGPTPVKRGSKDPRGGIFDAVFTRGDQSKLLTNRHDFKEKTLKEISDLIKQELTEGKALGISHTYANVRINHVINLWGADFDAEGNLEAIYVTDSDSNASIGMKKYFVGVNSNGKVAISAKEIEEDNIGAQVLGLFTLSTGQDIWNQTN
B8: PRT-391 (protein)
chain: B7 chain with D108E, P157K
B9: PRT-437 (protein)
chain: MSQTEDSESLQRLRDIEDFQAEKKKQNVVYTKWLDGVDVKDHDFRKIVDGNEAYYATPLLNGRGFYDINKDFNRDSDKCAAAVAANMFHYWLDRNRDNVDRFLRQNPEKHGIIELPDGQLKLSDFLNTYESDDGYRDKSKLFDFISNNFNGPVWTDKLLDNYINGYAYNYKYGRTIEDPTKNTSKINFFKEVFNEKILTNNHSIRNQNEFSVLLSEALYTGKAIGLSYGPAGLRHSLGHIISVWGADLDADGNVVAIYVTDSDDKKLTIGDERVGLKRYKISTDDEGRLRLTAYEETHNTGGQIRGLWTLDTGKQAWADYFDKTEQTGTDQAEQ

The data set has as its target pooled human IgG (human IgG1, 2, 3 and 4).
As to B1, the Enzyme Activity Endpoint Assay (purified): Fab′2 amounted to 555 ng/µL, the Enzyme Activity Endpoint Assay (purified): Fc turned out to be 370 ng/µL, the Enzyme Activity Endpoint Assay (purified): IgG came to 0 ng/µL and the Enzyme Activity Endpoint Assay (purified): scIgG is 196 ng/µL. In addition, the Enzyme Activity Endpoint Assay: Fab′2 worked out at 555 ng/µL, the Enzyme Activity Endpoint Assay: Fc was 370 ng/µL, the Enzyme Activity Endpoint Assay: IgG is 0 ng/µL and the Enzyme Activity Endpoint Assay: scIgG worked out at 196 ng/µL.
In turn, B2 yielded an Enzyme Activity Endpoint Assay (purified): Fab′2 of 209 ng/µL, an Enzyme Activity Endpoint Assay (purified): Fc of 277 ng/µL, an Enzyme Activity Endpoint Assay (purified): IgG of 90 ng/µL and an Enzyme Activity Endpoint Assay (purified): scIgG of 396 ng/µL. This protein also yielded an Enzyme Activity Endpoint Assay: Fab′2 of 209 ng/µL, an Enzyme Activity Endpoint Assay: Fc of 277 ng/µL, an Enzyme Activity Endpoint Assay: IgG of 90 ng/µL and an Enzyme Activity Endpoint Assay: scIgG of 396 ng/µL.
Protein B3 had an Enzyme Activity Endpoint Assay (purified): Fab′2 of 435 ng/µL, an Enzyme Activity Endpoint Assay (purified): Fc of 299 ng/µL, an Enzyme Activity Endpoint Assay (purified): IgG of 135 ng/µL and an Enzyme Activity Endpoint Assay (purified): scIgG of 108 ng/µL. This protein returned an Enzyme Activity Endpoint Assay: Fab′2 of 435 ng/µL, an Enzyme Activity Endpoint Assay: Fc of 299 ng/µL, an Enzyme Activity Endpoint Assay: IgG of 135 ng/µL and an Enzyme Activity Endpoint Assay: scIgG of 108 ng/µL.
In turn, B4 displayed an Enzyme Activity Endpoint Assay (purified): Fab′2 of 0 ng/µL, an Enzyme Activity Endpoint Assay (purified): Fc of 0 ng/µL, an Enzyme Activity Endpoint Assay (purified): IgG of 1580 ng/µL and an Enzyme Activity Endpoint Assay (purified): scIgG of 0 ng/µL. In addition, the Enzyme Activity Endpoint Assay: Fab′2 stood at 0 ng/µL, the Enzyme Activity Endpoint Assay: Fc stood at 0 ng/µL, the Enzyme Activity Endpoint Assay: IgG was found to be 1580 ng/µL and the Enzyme Activity Endpoint Assay: scIgG amounted to 0 ng/µL.
On to B5, for which the Enzyme Activity Endpoint Assay (purified): Fab′2 stood at 496 ng/µL, the Enzyme Activity Endpoint Assay (purified): Fc stood at 341 ng/µL, the Enzyme Activity Endpoint Assay (purified): IgG amounted to 77 ng/µL and the Enzyme Activity Endpoint Assay (purified): scIgG amounted to 129 ng/µL. In addition, the Enzyme Activity Endpoint Assay: Fab′2 was found to be 496 ng/µL, the Enzyme Activity Endpoint Assay: Fc was 341 ng/µL, the Enzyme Activity Endpoint Assay: IgG is 77 ng/µL and the Enzyme Activity Endpoint Assay: scIgG worked out at 129 ng/µL.
The protein B6 showed an Enzyme Activity Endpoint Assay (purified): Fab′2 of 494 ng/µL, an Enzyme Activity Endpoint Assay (purified): Fc of 348 ng/µL, an Enzyme Activity Endpoint Assay (purified): IgG of 69 ng/µL and an Enzyme Activity Endpoint Assay (purified): scIgG of 136 ng/µL. The protein also displayed an Enzyme Activity Endpoint Assay: Fab′2 of 494 ng/µL, an Enzyme Activity Endpoint Assay: Fc of 348 ng/µL, an Enzyme Activity Endpoint Assay: IgG of 69 ng/µL and an Enzyme Activity Endpoint Assay: scIgG of 136 ng/µL.
As for B7, the Enzyme Activity Endpoint Assay (purified): Fab′2 is 581 ng/µL, the Enzyme Activity Endpoint Assay (purified): Fc is 379 ng/µL, the Enzyme Activity Endpoint Assay (purified): IgG amounted to 0 ng/µL and the Enzyme Activity Endpoint Assay (purified): scIgG amounted to 230 ng/µL. This protein also showed an Enzyme Activity Endpoint Assay: Fab′2 of 581 ng/µL, an Enzyme Activity Endpoint Assay: Fc of 379 ng/µL, an Enzyme Activity Endpoint Assay: IgG of 0 ng/µL and an Enzyme Activity Endpoint Assay: scIgG of 230 ng/µL.
The protein B8 gave an Enzyme Activity Endpoint Assay (purified): Fab′2 of 498 ng/µL, an Enzyme Activity Endpoint Assay (purified): Fc of 361 ng/µL, an Enzyme Activity Endpoint Assay (purified): IgG of 29 ng/µL and an Enzyme Activity Endpoint Assay (purified): scIgG of 192 ng/µL. The same protein registered an Enzyme Activity Endpoint Assay: Fab′2 of 498 ng/µL, an Enzyme Activity Endpoint Assay: Fc of 361 ng/µL, an Enzyme Activity Endpoint Assay: IgG of 29 ng/µL and an Enzyme Activity Endpoint Assay: scIgG of 192 ng/µL.
On to B9, for which the Enzyme Activity Endpoint Assay (purified): Fab′2 came out at 445 ng/µL, the Enzyme Activity Endpoint Assay (purified): Fc stood at 306 ng/µL, the Enzyme Activity Endpoint Assay (purified): IgG stood at 0 ng/µL and the Enzyme Activity Endpoint Assay (purified): scIgG is 263 ng/µL. The Enzyme Activity Endpoint Assay: Fab′2 turned out to be 445 ng/µL, the Enzyme Activity Endpoint Assay: Fc amounted to 306 ng/µL, the Enzyme Activity Endpoint Assay: IgG was determined as 0 ng/µL and the Enzyme Activity Endpoint Assay: scIgG was found to be 263 ng/µL.
